This note sets out measurements from publication PMC3236736, “Jamb and Jamc Are Essential for Vertebrate Myocyte Fusion” (PLoS Biology, 2011).

Sequences and labels used below:
B1: Jamc extracellular domain fused to rat Cd4 domains 3 and 4 (Jamc-Cd4d3+4-6H; Jamc-Cd4d3+4-bio) (domain or fragment, zebrafish, UniProt A3KPA0 24-235, looked up)
chain: VLLKSTNSKPWVNEFESIELSCMIESITTTKPRIEWKKIKNGDPSYVYFDNQISGDLERRAKIREPATLVILNATRSDSADYRCEVTAPNDQKSFDEILISLTVRVKPVVPRCSVPKSIPVGKPAELHCLEDEGYPKSQYQWFRNKEEIPLDPKSSPKFFNSTYTLDGEMGTLKFSAVRKEDAGEYYCRAKNEAGISECGPQMMEVYDINIA
notes: Jamc (official symbol jam3b), zebrafish, Entrez Gene 569217; Two forms with the same ectodomain were made; They are written as one molecule because the protein stood against itself in the homophilic test; also called Jam3b; zebrafish JAM-C orthologue; source: expressed as a soluble fusion protein, purified; not shown: rat Cd4 domains 3 and 4, C-terminal, kept; His6, C-terminal, kept
B2: Jamb extracellular domain fused to rat Cd4 domains 3 and 4 (Jamb-Cd4d3+4-6H; Jamb-Cd4d3+4-bio) (domain or fragment, zebrafish, UniProt A0A0R4IGV4 19-226, looked up)
chain: VTVSSRNPKVEVHEFSDAELSCEFKTEKDTNPRIEWKRKDKEKDVSFVYYGERFVGPFQDRADIEGATVRLRRVTQADAGEYRCEVSAPSDSISLGETNVTLRVLVPPQTPSCDVPSSALTGSQVELRCRDRHSIPPAVYTWYKDNRALPIRHPNATYTVNEFTGVLIPQSHYNPGTVCQHCMYHPNYHIPNTQLTTTFQTHDLNVAA
notes: Jamb (official symbol jam2a), zebrafish, Entrez Gene 100005261; Two forms with the same ectodomain were made; They are written as one molecule because the protein stood against itself in the homophilic test; also called Jam2a; zebrafish JAM-B orthologue; source: expressed as a soluble fusion protein, purified; not shown: rat Cd4 domains 3 and 4, C-terminal, kept; His6, C-terminal, kept

For experiment [1], the target named is B2. The experiment is described as follows: SPR; dissociation phase averaged over three concentrations of purified Jamc-Cd4d3+4-6H or Jamb-Cd4d3+4-6H analyte, fitted to a first-order decay; homophilic and heterophilic interactions. The note with it: both partners purified. On the technique in general: Surface plasmon resonance follows binding to a sensor surface in real time, without labels.

For experiment [2], the target named is B1. The experiment is described as follows: SPR; equilibrium binding analysis with soluble recombinant extracellular domains; Jamc analyte; essentially as in ref. 33. The conditions noted are these: both partners purified.

The term stoichiometry N denotes the number of molecules, sites or subunits per partner or assembly. On to B1, for which the “stoichiometry N” value in experiment [1] turned out to be 1. The Kd is a measure of binding affinity in units of concentration. On to B2, for which, in experiment [2], the Kd is approximately 4.7 µM.
